Experimental findings from patent publication US20130029902A1 (PHARIS BIOTECH, published 2013) are described below.

Test [1] concerns the target T1, EGFP-hCXCR4 (human, UniProt P61073 1-352). The test can be described thus: competition with CXCL12-Tr on CXCR4 expressing HEK293 cells, FRET. Here is the method:
(§1) The CXCR4 receptor is stably transfected in Human Embryonic Kidney (HEK) cells as a fusion protein with the EGFP fluorescent protein fused to the extracellular amino-terminal part of the receptor (EGFP-CXCR4). The human chemokines CXCL12 and CXCL12-TexasRed were synthesized as described (Amara et al., 1999, JBC 274:23916-23925; Valenzuela-Fernandez, et al., 2001, JBC 276:26550-26558). Real-time fluorescence monitoring of ligand-receptor interactions was performed as followed: HEK293 cells expressing the fusion receptor, EGFP-hCXCR4, were harvested in phosphate-buffered saline supplemented with 5 mM EDTA, pH 7.4, centrifuged and resuspended in HEPES-bovine serum albumin buffer (10 mM HEPES, 137.5 mM NaCl, 1.25 mM MgCl2, 1.25 mM CaCl2, 6 mM KCl, 10 mM glucose, 0.4 mM NaH2PO4, 1% bovine serum albumin (w/v), pH 7.4) supplemented with protease inhibitors (40 μg/mL bestatin and bacitracin, 20 μg/mL phosphoramidon, 50 μg/mL chymostatin, and 1 μg/mL leupeptin). […] Time-based recordings of the fluorescence emitted at 510 nm (excitation at 470 nm) were performed at 21° C. using a spectrofluorimeter (fluorolog 2, Spex) and sampled every 0.3 s. Fluorescence binding measurements were initiated by adding at 30 seconds 100 nM of CXCL12-TR to 1 mL cell suspension. […] Then, CXCL12-TR (100 nM) was added and fluorescence was recorded until equilibrium was reached (300 sec). […]

For a further test, the target named is CXCR4 (UniProt P61073 1-352, limits assumed). The test can be described thus: cell-based or functional assay.
Test [2] concerns the target T1, EGFP-hCXCR4. The test can be described thus: competition with 100 nM CXCL12-TR on HEK293 cells expressing EGFP-hCXCR4, FRET. As for the experimental part: as §1

A value given as a limit tells only on which side of the number the result lay.

T1 sequence (P61073 whole entry, the tested form may be a part): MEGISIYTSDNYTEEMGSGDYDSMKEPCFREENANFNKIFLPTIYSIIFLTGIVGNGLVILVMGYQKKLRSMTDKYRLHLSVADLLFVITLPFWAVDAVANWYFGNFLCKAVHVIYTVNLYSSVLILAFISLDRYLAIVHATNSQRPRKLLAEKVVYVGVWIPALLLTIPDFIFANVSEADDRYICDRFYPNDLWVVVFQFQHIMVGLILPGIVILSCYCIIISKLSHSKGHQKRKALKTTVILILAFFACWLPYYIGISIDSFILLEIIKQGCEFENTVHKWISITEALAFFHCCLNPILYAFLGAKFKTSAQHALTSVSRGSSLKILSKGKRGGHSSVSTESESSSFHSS

B1: ALB408-413 (peptide)
peptide: LVRYTK
notes: Synthetic fragment of human serum albumin
As usually defined, the Kd is a measure of binding affinity in units of concentration. Take B1: in the test with EGFP-hCXCR4 [1], the Kd is greater than 200 µM.

B2: ALB408-423 (peptide)
peptide: LVRYTKKVPQVSTPTL
notes: also called Human circulating antiviral albumin fragment; wild type peptide
The term EC50 denotes the concentration needed to bring the measured effect to its halfway point. The term Ki denotes the dissociation constant of the complex between target and ligand, obtained from inhibition or displacement. With B2, in the test with CXCR4, the “IC50, HIV-1 NL4-3 infection of TZM-bl cells (fraction 31 from hemofiltrate)” value worked out at 21.4 µg/mL; the “IC50, X4 tropic HIV-1 and HIV-2 infection of TZM-bl cells” value was 10 to 20 µM; the “mean IC50, infection of TZM-bl cells by X4-tropic HIV-1 variants” value is 24.2 µg/mL. In the test with EGFP-hCXCR4 [2], the concentration giving a half-maximal response (EC50) amounted to 8 µM and the inhibitory constant (Ki) was determined as 3 µM.
